# Experimental data reported in patent CN117736312A (SHANGHAI BOVAX BIOLOGICAL SCIENCE & TECH CO LTD, dated 2024).
# T1: HPV6L1 (human papillomavirus type 6, UniProt P69899 1-500)
# T1 construct: also called HPV 6 L1原液
# T1 sequence: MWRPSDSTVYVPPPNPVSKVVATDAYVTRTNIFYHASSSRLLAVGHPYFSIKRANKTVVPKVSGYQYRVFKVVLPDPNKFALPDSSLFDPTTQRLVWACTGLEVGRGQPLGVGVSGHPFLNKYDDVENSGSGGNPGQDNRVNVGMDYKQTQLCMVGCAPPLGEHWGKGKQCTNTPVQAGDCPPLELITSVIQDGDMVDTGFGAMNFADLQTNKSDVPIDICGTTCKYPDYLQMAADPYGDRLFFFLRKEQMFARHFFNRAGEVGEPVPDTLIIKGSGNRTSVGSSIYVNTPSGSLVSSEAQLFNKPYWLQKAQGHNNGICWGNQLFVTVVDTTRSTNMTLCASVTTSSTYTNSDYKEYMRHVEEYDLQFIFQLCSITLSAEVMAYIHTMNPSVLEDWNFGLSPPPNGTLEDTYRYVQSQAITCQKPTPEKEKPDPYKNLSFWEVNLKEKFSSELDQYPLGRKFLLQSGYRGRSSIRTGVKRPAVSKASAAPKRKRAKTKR
# T2: HPV39L1 (human papillomavirus type 39, UniProt P24838 1-505)
# T2 sequence: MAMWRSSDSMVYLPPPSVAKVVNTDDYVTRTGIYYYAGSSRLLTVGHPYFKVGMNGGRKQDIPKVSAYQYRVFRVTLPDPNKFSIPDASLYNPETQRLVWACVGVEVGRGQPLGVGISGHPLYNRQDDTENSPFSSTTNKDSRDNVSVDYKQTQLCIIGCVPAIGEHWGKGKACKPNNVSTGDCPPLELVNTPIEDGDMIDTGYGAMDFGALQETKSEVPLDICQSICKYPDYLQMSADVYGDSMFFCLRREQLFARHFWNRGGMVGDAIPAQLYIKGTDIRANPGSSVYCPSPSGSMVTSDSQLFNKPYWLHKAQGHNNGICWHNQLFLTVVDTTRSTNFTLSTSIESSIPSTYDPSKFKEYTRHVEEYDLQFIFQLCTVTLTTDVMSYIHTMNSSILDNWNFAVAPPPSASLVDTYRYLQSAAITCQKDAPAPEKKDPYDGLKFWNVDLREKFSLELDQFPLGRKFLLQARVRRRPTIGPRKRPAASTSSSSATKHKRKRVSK
# T3: HPV56L1 (human papillomavirus type 56, UniProt P36743 36-534)
# T3 sequence: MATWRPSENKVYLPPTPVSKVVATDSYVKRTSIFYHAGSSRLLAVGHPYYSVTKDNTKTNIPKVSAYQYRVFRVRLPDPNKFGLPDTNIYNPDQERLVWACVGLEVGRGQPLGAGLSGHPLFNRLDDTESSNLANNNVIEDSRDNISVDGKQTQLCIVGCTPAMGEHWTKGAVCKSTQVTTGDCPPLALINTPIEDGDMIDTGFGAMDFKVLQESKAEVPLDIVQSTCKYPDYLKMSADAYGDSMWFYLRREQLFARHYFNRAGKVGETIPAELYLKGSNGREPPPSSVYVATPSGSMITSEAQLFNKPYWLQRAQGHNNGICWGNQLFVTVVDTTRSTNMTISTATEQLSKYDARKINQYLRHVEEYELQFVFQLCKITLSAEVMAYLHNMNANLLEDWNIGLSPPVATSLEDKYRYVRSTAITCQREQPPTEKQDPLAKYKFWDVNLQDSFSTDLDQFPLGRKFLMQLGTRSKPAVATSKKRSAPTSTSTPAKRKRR
# B1: HPV 59编号为30单克隆抗体 (antibody, V domains shown)
# VH: QIQLVQSGPELKKPGETVKISCKASGYTFTDYSMHWVKQAPGKGLKWMGWINTETGEPTYADDFKGRFAFSLETSASTAYLQINNLKIEDTATYFCTRDGYVWYFDVWGAGTTVTVSS
# VL: QIVLSQSPAILSASPGEKVTMTCRASSSVNYMHWYQQKPGSSPKPWIYATSNLASGVPARFSGSGSGTSYSLTISRVEAEDAATYYCQQWSSNPIFTFGSGTKLEIK
# notes: Mouse hybridoma antibody tested as cell supernatant; also called 59H30
# How the values were obtained:
# Test in all cases: sandwich ELISA (rabbit anti-L1 capture)
# HPV6L1 = molecular target: T1, HPV6L1
# HPV39L1 = molecular target: T2, HPV39L1
# HPV56L1 = molecular target: T3, HPV56L1
binder,measurement,setting,value
B1,binding result,HPV6L1,no binding (tested: 原液40μg/ml; 细胞上清1:100)
same,binding result,HPV39L1,no binding (tested: 原液40μg/ml; 细胞上清1:100)
same,binding result,HPV56L1,no binding (tested: 原液40μg/ml; 细胞上清1:100)
